Reference: article PMC2649420 (The Journal of biological chemistry, 2008)

Target: Sbi-III-IV (amino acids 150-266), domains III and IV of Sbi (S. aureus strain Mu50, UniProt Q99RL2 150-266)
Assay: SPR

B1: C3a anaphylatoxin (domain or fragment)
chain: not shown
Work on B1 yielded a Kd of 19.8 µM.
